Assay results taken from patent US20230340555A1, “PRODUCTION OF GLYCOSYLATED CANNABINOIDS” (WILLOW BIOSCIENCES, INC., priority 2020, published 2023).

tested on: CN3 yeast strain host cells; assay: Detection of glycosylated cannabinoids and cannabinoid precursors in yeast cells expressing UDP-glycosyl transferase (HPLC-MS); type: cell-based; details: pellet or supernatant of recombinant yeast host cells transformed with the UGT
Excerpt: CN3 yeast strain host cells were transformed as described in Example 1 with one of the following heterologous UGT genes: (1) AtUGT73C6, (2) AtUGT73B4, (3) AtUGT71 D1, (4) AtUGT76E12, (5) AtUGT88A1, (6) HaUGT76G1-L, (7) At5g49690, (8) AtUGT76C4, (9) CsUGT73C6, (10) SrUGT76C1, (11) AtUGT85A3, (12) AtUGT73B1, (13) Atg65550, (14) AtUGT76B1, (15) ATUGT76B1, (16) CsUGT75B2, (17) CsUGT73B4, (18) CsUGT73B1, (19) CsUGT75D1-DN11028, and (20) CsUGT71D1-DN48028. The transformed host cells were pre-grown overnight in yeast extract peptone dextrose (YPD) growth medium and then back diluted into yeast extract peptone galactose (YPG) to OD600 = 0.2. […] Strains were incubated for 20 h at 28° C. rotating at 600 RPM in an EPOCH|2 microplate reader (BioTek). Subsequently, samples were treated with an extraction solvent (80 % Acetonitrile, 20 % Methanol) for 1 hour rotating at 100 RPM. After 20 minutes centrifugation at 12,000 RPM, the supernatant was filtered with a basix 13 mm syringe filter (0.22 µm pore size, Nylon membrane) and transferred to a new tube for further analysis.
Glycosylated cannabinoid compounds and glycosylated cannabinoid precursor compounds were assayed in the supernatant and the cellular pellet employing HPLC and HPLC-MS analysis. HPLC and HPLC-MS analysis was carried out as described below to detect the following glycosylated cannabinoid and cannabinoid precursor compounds: CBGA monoglucoside, CBGA diglucoside, CBDA monoglucoside, CBDA diglucoside, CBGA glucuronic acid, CBD monoglucoside, CBD diglucoside, olivetolic acid monoglucoside (“OliAcid monoglucoside”), olivetolic acid diglucoside (“OliAcid diglucoside”).
HPLC analysis was carried out on an Agilent Technologies 1290 Infinity system, consisting of a vacuum degasser, a binary pump, a thermostated autosampler, a thermostated column compartment and a diode array detector (DAD). A Zorbax Eclipse Plus EC-18 column (2.1 × 50 mm, 1.8 µm, Agilent, USA) was used with a mobile phase composed of 0.1% formic acid in both (A) water with 0.2 % Formic Acid and (B) Acetonitrile with 0.2 % Formic Acid. The chromatographic conditions were set as follows: 0.0-8.0 min linear gradient from 5 to 95% B; 8.1-9.09 min […], 9.10-11.0 min 5 to 95% A for equilibration of the column with the initial conditions. The flow rate was set at 0.4 ml/min. The column temperature was set at 40° C. The sample injection volume was 5 µL. The UV/DAD acquisitions were carried out in the range 190-400 nm and chromatograms were acquired at 265 and 350 nm.
HPLC-MS analysis was carried out to confirm the identity of the HPLC peaks using an Agilent Technologies 6530 Accurate-Mass quadrupole time of flight (QToF) mass spectrometer operating in negative ionization (ESI -) mode. The mass spectrometer experimental parameters were set as follows: the capillary voltage was 3.5 kV, the nebulizer (N2) pressure was 35 psi, the drying gas temperature was 350° C., the drying gas flow was 11 L/min and the skimmer voltage was 65 V. Data were acquired by Agilent Mass Hunter software. The mass spectrometer was operated in full-scan mode in the m/z range 50-1100. Extracted ion chromatograms (EICs) were obtained with an accuracy of 10 ppm m/z from total ion chromatogram (TIC) employing the m/z corresponding to the molecular ions [M-H]^- 385.1504 for Olivetolic Acid Mono-Glucoside, 547.2032 for Olivetolic Acid di-Glucoside, 521.2756 for CBGA Mono-Glucoside, 683.3284 for CBGA Di-Glucoside, 535.2549 for CBGA Glucuronic Acid, 519.2600 for CBDA Mono-Glucoside, 475.2701 for CBD Mono-Glucoside, 637.3302 for CBD Di-Glucoside.
The glycosylated cannabinoid compounds and glycosylated cannabinoid precursor compounds were detected in a relative and semi-quantitative fashion. […]

| Molecule | production of glycosylated cannabinoids or cannabinoid precursor compounds |
| --- | --- |
| AtUGT85A3: UDP-glycosyl transferase from Arabidopsis thaliana, amino acid sequence SEQ ID NO: 22 (protein, listed as Arabidopsis thaliana) MGSRFVSNEQKPHVVCVPYPAQGHINPMMKVAKLLHVKGFHVTFVNTVYNHNRLLRSRGANALDGLPSFQFESIPDGLPETGVDATQDIPALSESTTKNCLVPFKKLLQRIVTREDVPPVSCIVSDGSMSFTLDVAEELGVPEIHFWTTSACGFMAYLHFYLFIEKGLCPVKDASCLTKEYLDTVIDWIPSMNNVKLKDIPSFIRTTNPNDIMLNFVVREACRTKRASAIILNTFDDLEHDIIQSMQSILPPVYPIGPLHLLVNREIEEDSEIGRMGSNLWKEETECLGWLNTKSRNSVVYVNFGSITIMTTAQLLEFAWGLAATGKEFLWVMRPDSVAGEEAVIPKEFLAETADRRMLTSWCPQEKVLSHPAVGGFLTHCGWNSTLESLSCGVPMVCWPFFAEQQTNCKFSCDEWEVGIEIGGDVKRGEVEAVVRELMDGEKGKKMREKAVEWRRLAEKATKLPCGSSVINFETIVNKVLLGKIPNT | No production |
| AtUGT76D1: UDP-glycosyl transferase from Arabidopsis thaliana, amino acid sequence SEQ ID NO: 30 (protein, listed as Arabidopsis thaliana) MAEIRQRRVLMVPAPFQGHLPSMMNLASYLSSQGFSITIVRNEFNFKDISHNFPGIKFFTIKDGLSESDVKSLGLLEFVLELNSVCEPLLKEFLTNHDDVVDFIIYDEFVYFPRRVAEDMNLPKMVFSPSSAATSISRCVLMENQSNGLLPPQDARSQLEETVPEFHPFRFKDLPFTAYGSMERLMILYENVSNRASSSGIIHNSSDCLENSFITTAQEKWGVPVYPVGPLHMTNSAMSCPSLFEEERNCLEWLEKQETSSVIYISMGSLAMTQDIEAVEMAMGFVQSNQPFLWVIRPGSINGQESLDFLPEQFNQTVTDGRGFVVKWAPQKEVLRHRAVGGFWNHGGWNSCLESISSGVPMICRPYSGDQRVNTRLMSHVWQTAYEIEGELERGAVEMAVRRLIVDQEGQEMRMRATILKEEVEASVTTEGSSHNSLNNLVHAIMMQIDEQ | No production |
| AtUGT73B1: UDP-glycosyl transferase from Arabidopsis thaliana, amino acid sequence SEQ ID NO: 24 (protein, listed as Arabidopsis thaliana) MGVFGSNESSSMSIVMYPWLAFGHMTPFLHLSNKLAEKGHKIVFLLPKKALNQLEPLNLYPNLITFHTISIPQVKGLPPGAETNSDVPFFLTHLLAVAMDQTRPEVETIFRTIKPDLVFYDSAHWIPEIAKPIGAKTVCFNIVSAASIALSLVPSAEREVIDGKEMSGEELAKTPLGYPSSKVVLRPHEAKSLSFVWRKHEAIGSFFDGKVTAMRNCDAIAIRTCRETEGKFCDYISRQYSKPVYLTGPVLPGSQPNQPSLDPQWAEWLAKFNHGSVVFCAFGSQPVVNKIDQFQELCLGLESTGFPFLVAIKPPSGVSTVEEALPEGFKERVQGRGVVFGGWIQQPLVLNHPSVGCFVSHCGFGSMWESLMSDCQIVLVPQHGEQILNARLMTEEMEVAVEVEREKKGWFSRQSLENAVKSVMEEGSEIGEKVRKNHDKWRCVLTDSGFSDGYIDKFEQNLIELVKS | No production |
| CsUGT71 D1-DN48028: UDP-glycosyl transferase from Cannabis sativa, amino acid sequence SEQ ID NO: 40 (protein, listed as Cannabis sativa) MARVELVFIPAPAIGHLVSTLEFAKRLIHYDHRLFITVLCEFSLKSHLDAYIDSLVASLSLAHRIKLVHLPLVDSPPVELLKSIENFIYQYMESLVPHVRKALTDIVSSNSNYSQGDVVLVLDFFCMPMMDVANELGLPSYMFMTSNLGLLSLMFYLATRHNQISSELEESDAPLRLQGFQNPVPSSVLPTAAFCKDGGYSAYVKLAQRFRETKGIIVNSFEELESYSFSSMNDGAETPPIYMVGPVLDLNGQPHPSMDQVQNDKILKWLDEQPHSSVVFLCFGSMGKFGASQLREIASGLQRSGHRFLWSVRVQQPTTIDEILPEGFLEQIGSKGMICNEWAPQVKILAHSAVGGFLSHCGWNSILESLWYGVPVATWPIYAEQQLNAFRMVREFGLAVDLRLDYKDRGDDHIVSAEEIETAVKHLMEGDKEVRKKVKEMSETARKSVEEGGSSFTAIGKLINSIIGSNYY | No production |
| AtUGT76B1: UDP-glycosyl transferase from Arabidopsis thaliana, amino acid sequence SEQ ID NO: 28 (protein, listed as Arabidopsis thaliana) METRETKPVIFLFPFPLQGHLNPMFQLANIFFNRGFSITVIHTEFNSPNSSNFPHFTFVSIPDSLSEPESYPDVIEILHDLNSKCVAPFGDCLKKLISEEPTAACVIVDALWYFTHDLTEKFNFPRIVLRTVNLSAFVAFSKFHVLREKGYLSLQETKADSPVPELPYLRMKDLPWFQTEDPRSGDKLQIGVMKSLKSSSGIIFNAIEDLETDQLDEARIEFPVPLFCIGPFHRYVSASSSSLLAHDMTCLSWLDKQATNSVIYASLGSIASIDESEFLEIAWGLRNSNQPFLWVVRPGLIHGKEWIEILPKGFIENLEGRGKIVKWAPQPEVLAHRATGGFLTHCGWNSTLEGICEAIPMICRPSFGDQRVNARYINDVWKIGLHLENKVERLVIENAVRTLMTSSEGEEIRKRIMPMKETVEQCLKLGGSSFRNLENLIAYILSF | No production |
| CsUGT75D1-DN11028: UDP-glycosyl transferase from Cannabis sativa, amino acid sequence SEQ ID NO: 38 (protein, listed as Cannabis sativa) MKRTLLFIPSPGIGHLVSMLEFAKRLIQYDDRLFITILSMKFPNHDAYINSLVPSLSQSRVKLAHLPQVDPPPPKLLNSPESYIYVYVESLVPHVRDALKHIVPSHSNSETTHSQGCFVMVLDFFCMPMMDVANELGLPSYMFMPSNIGFLSSMLYLATRHDQISSELKESNPDEYSLKSFHNPVPWSALPQAYFCKDGGYSACVKMAQRFRETKGIIVNSFEGLEAHGATSFNDGETPPIYMVGPVVNFKGQPHSSTDHVQNNRIFKWLDEQPQSSVVFLCFASLGTFDASQLREIASGLECSGHRFLWCIRVQQPTIIDEILPEGFLERIGSKGMICNEWTPQVEVLAHNAVGGFVSHCGWNSILESLWYGVPIVTWPVYAEQQLNAFQMVREFDLAIELRLDYRNRGHNQLVTAEEIGNAIKKLMEGDHNVVMRKKGASGISSMVLSRFYTCKENVVLRQDPRWFAIKAGGEEK | No production |
| At5g65550: UDP-glycosyl transferase from Arabidopsis thaliana, amino acid sequence SEQ ID NO: 26 (protein, listed as Arabidopsis thaliana) MAEPKPKLHVAVFPWLALGHMIPYLQLSKLIARKGHTVSFISTARNISRLPNISSDLSVNFVSLPLSQTVDHLPENAEATTDVPETHIAYLKKAFDGLSEAFTEFLEASKPNWIVYDILHHWVPPIAEKLGVRRAIFCTFNAASIIIIGGPASVMIQGHDPRKTAEDLIVPPPWVPFETNIVYRLFEAKRIMEYPTAGVTGVELNDNCRLGLAYVGSEVIVIRSCMELEPEWIQLLSKLQGKPVIPIGLLPATPMDDADDEGTWLDIREWLDRHQAKSVVYVALGTEVTISNEEIQGLAHGLELCRLPFFWTLRKRTRASMLLPDGFKERVKERGVIWTEWVPQTKILSHGSVGGFVTHCGWGSAVEGLSFGVPLIMFPCNLDQPLVARLLSGMNIGLEIPRNERDGLFTSASVAETIRHVVVEEEGKIYRNNAASQQKKIFGNKRLQDQYADGFIEFLENPIAGV | No production |
